Assay results taken from paper PMC6044645.

Target: Class I polyhydroxyalkanoate synthase (PhaC) from Rhodovulum sulfidophilum (Rhodovulum sulfidophilum)
Experiment: SEC

Class I polyhydroxyalkanoate synthase (PhaC) from Rhodovulum sulfidophilum (from UniProt A0ABS1RUN8 1-567) (enzyme)
stoichiometry N: 2
